According to US20110097317A1:

Molecular target: thioredoxin (TRX), endogenous in bovine aortic endothelial cells (BAEC) (bovine) (UniProt O97680)
Experiment: cell-based or functional assay

UniProt O97680, sequence (O97680 2-105 limits assumed): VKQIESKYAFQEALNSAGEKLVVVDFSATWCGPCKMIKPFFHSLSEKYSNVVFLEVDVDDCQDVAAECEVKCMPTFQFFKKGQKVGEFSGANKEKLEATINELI

Thioredoxin interacting protein (TXNIP) over-expressed from pcDNA3.1-TXNIP in BAEC
TNF-mediated activation of JNK (phospho-specific immunoblot) in BAEC over-expressing TXNIP: 33%
TNF-mediated activation of p38 (phospho-specific immunoblot) in BAEC over-expressing TXNIP: 23%
